Data published in paper PMC11965310.

Target: Recombinant Human LRP1 cluster III protein, Fc Tag (human) (UniProt Q07954)
Test: SPR; LRP1 cluster III-Fc captured on a Protein G chip (1800 RU); tau1N4R as analyte 0.012-1 μM, single-cycle kinetics; HBS-N with 0.005% P20 and 1 mM CaCl2; 1:1 Langmuir model

Recombinant Human LRP1 cluster III protein, Fc Tag (human), sequence (Q07954 2522-2940): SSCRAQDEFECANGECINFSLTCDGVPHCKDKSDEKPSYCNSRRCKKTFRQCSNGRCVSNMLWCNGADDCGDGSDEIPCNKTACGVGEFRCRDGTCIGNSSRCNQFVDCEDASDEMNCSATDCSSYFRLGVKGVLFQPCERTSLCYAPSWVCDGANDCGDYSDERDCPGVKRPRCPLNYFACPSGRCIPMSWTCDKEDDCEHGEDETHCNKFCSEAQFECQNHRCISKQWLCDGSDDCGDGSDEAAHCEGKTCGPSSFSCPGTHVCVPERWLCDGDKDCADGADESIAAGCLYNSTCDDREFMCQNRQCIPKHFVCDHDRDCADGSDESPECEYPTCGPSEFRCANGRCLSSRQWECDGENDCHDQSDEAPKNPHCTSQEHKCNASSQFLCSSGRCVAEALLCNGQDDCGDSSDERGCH

Kd: 0.091 µM
Substance: tau1N4R (from UniProt P10636-6 1-383) (natural protein)
